From patent publication CN113999301A (JIANGSU XINTRUM PHARMACEUTICALS CO LTD, dated 2022)

Target: 新冠原始假病毒的S蛋白 (FNV-SARS-CoV-2-S) (SARS-CoV-2, UniProt P0DTC2 14-1273)
Assay: cell-based or functional assay

B1: 抗SARS-CoV-2(COVID-19)S蛋白RBD单克隆抗体B15-5-B3 (antibody, V domains shown)
VH: EVKFEESGGGLVQPGGSMKLSCAASGFTFSDAWMDWVRQSPEKGLEWVAEIRNKANNHATYYAESVKGRFTISRDDSKSSVYLQMNSLRAEDTGIYYCTPYDYAYPWFWGQGTLVTVSA
VL: EIVLTQSPTTMAASPGEKITITCSASSSISSHYLHWYQQKPGFSPKLLIYRSYSLASGFPGRFSGSGSGTSFSLSIGTMEAEDVATYYCQQGSSRITPFGGGTKLEIK
  假病毒中和效应 EC50 (luciferase, HEK293-ACE2 cells): 0.0369 µg/mL
